Laboratory results as given in patent US20120121613.

Tests used:
[1] = target: PEG-FVIII (FVIII mutein directly, non-cleavably conjugated to PEG) (UniProt P00451)
[2] = target: unmodified FVIII mutein (UniProt P00451)
[3] = target: PEG-linker-FVIII (FVIII mutein conjugated to PEG through a thrombin-cleavable linker, linker not named in Example 2) (UniProt P00451)

## thrombin
[1]
  SDS-PAGE after thrombin digestion: there was no removal of PEG-conjugated light chain (lane 4)
[2]
  SDS-PAGE after thrombin digestion (30 min at 37° C.): After thrombin digestion, the FVIII light and heavy chains disappear and are replaced by cleavage products.
[3]
  SDS-PAGE after thrombin digestion (30 min at 37° C.): the PEG-conjugated light chain almost completely disappeared in SDS-PAGE analysis, indicating a complete removal of PEG
